Data on four molecules can be found in patent publication US20100047253A1 (Amgen, published 2010).

Substitutions are numbered along the chain they refer to.

Test [1] addresses human IL-13 (source not stated for the assay) (human, UniProt P35225 35-146, limits assumed). Briefly: cell-based or functional assay.
Test [2] has as its target T1, Human IL-13-Mouse IL-13 Helix C (human IL-13 with mouse Helix C, UniProt P35225 35-146, limits assumed).
T1 construct: Expressed and secreted chimeric protein; also called Mo HelixC
T1 chain: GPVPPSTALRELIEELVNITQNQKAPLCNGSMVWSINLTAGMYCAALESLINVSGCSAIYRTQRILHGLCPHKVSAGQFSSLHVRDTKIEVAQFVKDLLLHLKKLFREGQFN
The test can be described thus: ELISA on secreted IL-13 chimeric proteins. (ELISA stands for enzyme-linked immunosorbent assay.)

In test [3] the target is T2, Human IL-13-Mouse IL-13 Helix B (human IL-13 with mouse Helix B, UniProt P35225 35-146, limits assumed).
T2 construct: Expressed and secreted chimeric protein; also called Mo HelixB
T2 chain: T1 chain with M42G, Y43F, A45V, E48D, I51T, Y60E, R61K, I65M, H67S, L69F
Briefly: ELISA on secreted IL-13 chimeric proteins.

Test [4] deals with T3, Recombinant Human IL-13 (R & D 213-IL-005) (human, UniProt P35225 35-146).
T3 construct: also called IL-13 antigen (R&D Systems)
T3 sequence (P35225 35-146 limits assumed): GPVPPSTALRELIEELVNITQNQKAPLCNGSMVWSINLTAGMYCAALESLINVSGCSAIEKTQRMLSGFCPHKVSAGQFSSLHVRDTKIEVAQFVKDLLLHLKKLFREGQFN
Briefly: SPR (Biacore 2000), mAb captured on goat anti-human surface, IL-13 (R&D) injected, 1:1 model. A general note: In SPR one partner is held on a chip, and binding of the other changes the refractive index at the surface.

Test [5] concerns the target T4, mouse IL-13 (mouse, UniProt P20109 22-131, limits assumed).
T4 construct: also called murine IL-13
T4 sequence (looked up): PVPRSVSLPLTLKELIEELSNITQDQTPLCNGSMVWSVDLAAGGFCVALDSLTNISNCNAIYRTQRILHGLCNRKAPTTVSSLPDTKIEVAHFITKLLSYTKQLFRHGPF
The test can be described thus: epitope mapping with mouse IL-13 chimeric molecules (ELISA).

Test [6] deals with T5, native human IL-13 (human, UniProt P35225 35-146, limits assumed).
T5 construct: also called hIL-13
T5 sequence (P35225 35-146 limits assumed): as the sequence (P35225 35-146 limits assumed) above
The test can be described thus: KinExA, equilibrium in solution. Background: A kinetic exclusion assay measures how much of one partner remains free in solution.

For test [7], the target named is T2, Human IL-13-Mouse IL-13 Helix B. Briefly: ELISA on secreted IL-13 chimeric proteins; '*' denotes that the binding was weak in the sandwich ELISA.

human IL-13 (source not stated for the assay), sequence (P35225 35-146 limits assumed): as the sequence (P35225 35-146 limits assumed) above

B1: mAb 356 (antibody, V domains shown)
VH: EVQLVESGGGLVKPGGSLRLSCAASGFTFSDYNMHWVRQAPGKGLEWVSSISYSSTYIYYADSVRGRFTISRDNAKNSLYLQMNSLRAEDTAVFYCAREDYYYYGLDVWGQGTTVTVSS
VL: DIQMTQSPSSLSASVGDRVTITCRASQDIRNDLGWYQQKPGKAPKRLIYDASSLQSGVPSRFSGSGSGTEFTLTISSLQPEDFAIYYCLQHNSYPWTFGQGTKVEIK
With B1, in test [1], the “IC50, IL-13 induced eotaxin release, Average” value (from here on “IC50 … Average”) was 1 nM; the “IC50, IL-13 induced eotaxin release, n = 1” value (“IC50 … n = 1” below) came to 1.09 nM; the “IC50, IL-13 induced eotaxin release, n = 2” value (“IC50 … n = 2” for short) was determined as 0.913 nM.

B2: mAb 602 (antibody, V domains shown)
VH: EVQLVESGGGLVKPGGSLRLSCAASGFTFSNAWMSWVRQAPGKGLEWVGRIRSKIDGGTINYAAPVKGRFTISRDDSKNTLYLQMNSLKTEDTAVYYCATDQVGAYYGDYYGMDVWGQGTTVTVSS
VL: SYELTQPPSVSVSPGQTARITCSGDALPEKYAYWYQQKSGQAPVLVIYEDTKRPSGIPERFSGSSSGTMATLTISGAQVEDEADYYCYSTDSSGNHGVFGGGTKLTVLG
As for B2, the binding result in test [2] was “binds”. Also, the binding result in test [3] is “binds”. Moreover, in test [1], the “IC50 … Average” value was 0.066 nM; the “IC50 … n = 1” value was 0.08 nM; the “IC50 … n = 2” value stood at 0.053 nM. For the same molecule, in test [4], the equilibrium dissociation constant (Kd) turned out to be 0.172 nM, the dissociation rate constant (koff) came out at 0.00051 s⁻¹ and the kon was 3e+06 M⁻¹ s⁻¹. For the same molecule, in test [5], the binding result is on record as “no binding”.

B3: mAb 643 (antibody, V domains shown)
VH: B2 VH with K54E, I60T, K89R
VL: B2 VL with T51S, Y88H
As to B3, in test [2], the binding result is “binds”. In addition, the binding result in test [3] was “binds”. Further, in test [1], the “IC50 … Average” value turned out to be 0.035 nM; the “IC50 … n = 1” value was found to be 0.044 nM; the “IC50 … n = 2” value was 0.028 nM; the “IC50, IL-13 induced eotaxin release, n = 3” value worked out at 0.033 nM. In test [4], the dissociation constant Kd worked out at 0.066 nM, the off-rate (koff) is 0.00029 s⁻¹ and the kon turned out to be 4.4e+06 M⁻¹ s⁻¹. The binding result in test [5] is recorded as “no binding”. This molecule also registered a Kd in test [6] of 0.013 nM.

B4: mAb 713 (antibody, V domains shown)
VH: EVQLLESGGGLVQPGGSLRLSCAASGFTFSSYAMSWVRQAPGKGLEWVSAFSGSGGSTYYADSVKGRFTISRDNSKNTLYLQMNSLRAEDTAVYYCVQDGLGPYFYNYGMDVWGQGTTVTVSS
VL: SYELTQPPSVSVSPGQTASITCSGDKLGDKYTCWFQQKPGQSPVLVIYHDSKRPSGIPERFSGSNSGDTATLTISGTQAMDEADYYCQAWDSSTYVFGTGTKVTVLG
As to B4, the binding result in test [2] is “no binding”. For the same molecule, in test [1], the “IC50 … Average” value is 0.021 nM; the “IC50 … n = 1” value came to 0.021 nM; the “IC50 … n = 2” value was found to be 0.021 nM; the “IC50, IL-13 induced eotaxin release, n = 3” value turned out to be 0.019 nM. Besides, in test [4], the Kd stood at 0.012 nM, the koff was determined as 3.4e-05 s⁻¹ and the on-rate (kon) came out at 2.9e+06 M⁻¹ s⁻¹. In addition, in test [5], the binding result was “no binding”. The binding result in test [7] is listed as “binds”. Also, binding in test [6] was characterised by a dissociation constant (Kd) of 0.0036 nM.

The term Kd denotes the equilibrium constant for the complex coming apart. One may read the koff as the first-order rate constant of dissociation. By kon is commonly meant a measure of how fast the partners come together.
